Results from paper PMC6819821, “Interaction of Cholesterol With the Human SLC1A5 (ASCT2): Insights Into Structure/Function Relationships” (Frontiers in Molecular Biosciences, 2019).

B1: human SLC1A5 (ASCT2), endogenous in HeLa cells (natural protein, human (endogenous in HeLa), UniProt Q15758 1-541, looked up)
chain: MVADPPRDSKGLAAAEPTANGGLALASIEDQGAAAGGYCGSRDQVRRCLRANLLVLLTVVAVVAGVALGLGVSGAGGALALGPERLSAFVFPGELLLRLLRMIILPLVVCSLIGGAASLDPGALGRLGAWALLFFLVTTLLASALGVGLALALQPGAASAAINASVGAAGSAENAPSKEVLDSFLDLARNIFPSNLVSAAFRSYSTTYEERNITGTRVKVPVGQEVEGMNILGLVVFAIVFGVALRKLGPEGELLIRFFNSFNEATMVLVSWIMWYAPVGIMFLVAGKIVEMEDVGLLFARLGKYILCCLLGHAIHGLLVLPLIYFLFTRKNPYRFLWGIVTPLATAFGTSSSSATLPLMMKCVEENNGVAKHISRFILPIGATVNMDGAALFQCVAAVFIAQLSQQSLDFVKIITILVTATASSVGAAGIPAGGVLTLAIILEAVNLPVDHISLILAVDWLVDRSCTVLNVEGDALGAGLLQNYVDRTESRSTEPELIQVKSELPLDPLPVPTEEGNPLLKHYRGPAGDATVASEKESVM
notes: ASCT2 (SLC1A5), sodium-dependent neutral amino acid antiporter, endogenous in HeLa cells; Detected with anti-hASCT2 (rabbit, Millipore) after formaldehyde cross-linking of intact cells; also called hASCT2; source: endogenous, intact HeLa cells (cross-linked in the cells, then total lysate)
B2: recombinant hASCT2-6His WT (natural protein, human)
chain: MVADPPRDSKGLAAAEPTANGGLALASIEDQGAAAGGYCGSRDQVRRCLRANLLVLLTVVAVVAGVALGLGVSGAGGALALGPERLSAFVFPGELLLRLLRMIILPLVVCSLIGGAASLDPGALGRLGAWALLFFLVTTLLASALGVGLALALQPGAASAAINASVGAAGSAENAPSKEVLDSFLDLARNIFPSNLVSAAFRSYSTTYEERNITGTRVKVPVGQEVEGMNILGLVVFAIVFGVALRKLGPEGELLIRFFNSFNEATMVLVSWIMWYAPVGIMFLVAGKIVEMEDVGLLFARLGKYILCCLLGHAIHGLLVLPLIYFLFTRKNPYRFLWGIVTPLATAFGTSSSSATLPLMMKCVEENNGVAKHISRFILPIGATVNMDGAALFQCVAAVFIAQLSQQSLDFVKIITILVTATASSVGAAGIPAGGVLTLAIILEAVNLPVDHISLILAVDWLVDRSCTVLNVEGDALGAGLLQNYVDRTESRSTEPELIQVKSELPLDPLPVPTEEGNPLLKHYRGPAGDATVASEKESVM
notes: human ASCT2 (SLC1A5), wild type, construct pPICZB-ASCT2-6His; no cleavage of the tag is described; In the cross-linking the protein was detected with anti-hASCT2; also called purified WT hASCT2; SLC1A5; source: P. pastoris X-33 (pPICZB-ASCT2-6His), solubilised in C12E8, purified (Ni-NTA, PD-10)

Tests used:
[1] = biological target: the molecule itself; assay: cross-linking; intact HeLa cells treated with 0.75% formaldehyde for 10 min at room temperature, stopped with 125 mM glycine; 50 ug total lysate on 8% SDS-PAGE, immunoblot with anti-hASCT2
[2] = biological target: the molecule itself; assay: cross-linking; purified WT hASCT2 in detergent, without or with 0.75 mg CHEMS, 1 or 4% formaldehyde in 20 mM Tris HCl pH 9.0 for 2 min at 23°C, stopped with 1.25 M glycine; 8% SDS-PAGE, immunoblot with anti-hASCT2

Protein | stoichiometry N [1] | stoichiometry N [2]
B1 | 3 | –
B2 | – | 3
